Assay results: patent publication US7575909B2, “Oxidoreductase from pichia capsulata” (IEP GmbH, priority 2003, dated 2009)

Assays:
[1] = Temperature stability of the oxidoreductase; format: physicochemical; conditions: after 30 min
Protocol: The temperature stability was determined for the range of 15° C. to 70° C. in a manner analogous to that described under Example 5.2. […] Also in this case, the measured value obtained immediately after diluting the purified oxidoreductase in a potassium phosphate buffer 50 mM pH=7.0 was used as the initial value. Said value was set as a 100% value also in this example.

[2] = Solvent stability of the oxidoreductase; format: physicochemical; conditions: RT
Protocol: The enzyme stability of the oxidoreductase from P. capsulata was examined in the presence of organic solvents. For this purpose, the oxidoreductase was in each case diluted 1:20 with the indicated solvent mixtures (in case of water-miscible organic solvents) and was incubated at room temperature (20° C. to 24° C.; RT). Subsequently, 10 μl of the enzyme solution were used in the standard test batch. Also in this case, the initial value was equalled to 100% after dilution in the buffer (potassium phosphate buffer (KPP) 100 mM, pH=7.0), and all the other values were set in relation to said initial value.
In case of water-immiscible organic solvents, the dilution likewise took place in a potassium phosphate buffer, the same volume of an organic solvent was added to the batch and the batch was incubated at RT in a thermomixer at 170 rpm. The activity was measured from the aqueous phase.

[3] = Temperature optimum of the oxidoreductase; format: biochemical
Protocol: In order to determine the optimum test temperature, the enzyme activity was measured in the standard measuring batch in a temperature range of 15° C. to 70° C.

[4] = pH stability of the recombinant oxidoreductase; format: physicochemical; conditions: pH values above 9.0 and below 5.0
Protocol: The determination of the activity of the recombinant oxidoreductase was examined by storage in the buffer systems mentioned in Table 3. For this purpose, the various buffers (50 mM) were prepared in a pH range of 4 to 11, and the oxidoreductase produced according to Example 4 was diluted therewith. After 30, 60 and 300 min of incubation, 10 μl were removed from the batch and used in the activity test according to Example 1.
Thereby, the initial value is the measured value which was obtained immediately after diluting (1:20) the enzyme in the potassium phosphate buffer 50 mM pH=7.0. Under the given conditions, said value corresponded to an extinction variation of approx. 0.70/min and was set as a 100% value, and all the following measured values were set in relation to said value.

[5] = Enzyme activity on expression of the oxidoreductase in E. coli; format: biochemical, Escherichia coli
Excerpt: Competent Escherichia coli StarBL21 (De3) cells (Invitrogen) were transformed with the expression construct pET21-PC#10 coding for the oxidoreductase according to the invention.
(§1) The transformed strain was cultivated in an LB medium (1% tryptone, 0.5% yeast extract, 1% NaCl) with ampicillin (50 ig/ml) until an optical density, measured at 500 nm, of 0.5 was reached. The production of the recombinant oxidoreductase protein was initiated by adding isopropylthiogalactoside (IPTG) at a final concentration of 1 mM. The induction batch was incubated for another 15 h at 25° C. and 220 rpm.
Competent Escherichia coli RB791 cells were transformed with the expression construct pQE30-PC#12 coding for the oxidoreductase according to the invention.
as §1, with “adding IPTG” for “adding isopropylthiogalactoside (IPTG)”, “of 0.1” for “of 1”, “15 hours” for “15 h”, “rpm. The enzyme activity achieved amounted to approx. 1000 U/g of wet cell mass.” for “rpm.”

B1: oxidoreductase from Pichia capsulata: NADH-dependent (S)-specific zinc-dependent carbonyl reductase from Pichia capsulata, amino acid sequence SEQ ID NO: 9, 341 amino acids (protein, listed as Pichia capsulata)
chain: MSALSKTQAGYIFKKGAGHIVKAEVPIPKPTGAQSLLRVKAAGMCHSDLHVIGETLEVPTDGYVLGHEIAGELVEIGDSVNPEVFKVGGRYAVHGLNSCGSCEMCRTGHDNDCTGNESKWYGLGISGGYQQYLLVPNSHHLLPIPDNVSYEVAAATSDAVLTPYHAIKNSGVTPSSKVLMFGLGGLGSNALQILKAFGAYVVAVDVKPASKAIADEFKADEFYTDISQSSWKPASFDYCFDFVSLQVTFDICQKYIKSHGTIFPVGLGSSKLTFDLGNLALREVKIVGNFWGTSQEQIEAMELVSSGRVKPQVHTTELENLPESLEKLEEGKINGRLVMLP
What does the source list for B1?
enzyme activity after incubation at 55° C. [1]: can no longer be detected; Activity ([2]; 5% EtOH, 8 h): 77%; Activity ([2]; 5% EtOH, 24 h): 77%; Activity ([2]; 5% isopropanol, 8 h): 77%; Activity ([2]; 5% isopropanol, 24 h): 77%; Activity ([2]; 10% DSMO, 8 h): 42%; Activity ([2]; 10% DSMO, 24 h): 45%; Activity ([2]; 10% EtOH, 8 h): 77%; Activity ([2]; 10% EtOH, 24 h): 77%; Activity ([2]; 10% isopropanol, 8 h): 72%; Activity ([2]; 10% isopropanol, 24 h): 72%; Activity ([2]; 20% DSMO, 8 h): 30%; Activity ([2]; 20% DSMO, 24 h): 30%; Activity ([2]; 20% EtOH, 8 h): 100%; Activity ([2]; 20% EtOH, 24 h): 100%; Activity ([2]; 20% isopropanol, 8 h): 46%; Activity ([2]; 20% isopropanol, 24 h): 46%; Activity ([2]; 30% EtOH, 8 h): 64%; Activity ([2]; 30% EtOH, 24 h): 64%; Activity ([2]; 30% isopropanol, 8 h): 18%; Activity ([2]; 30% isopropanol, 24 h): 18%; Activity ([2]; Buffer KPP 100 mM pH = 7, 1 mM MgCl2, 8 h): 100%; Activity ([2]; Buffer KPP 100 mM pH = 7, 1 mM MgCl2, 24 h): 100%; Activity ([2]; butyl acetate (same volume, two-phase), 8 h): 53%; Activity ([2]; butyl acetate (same volume, two-phase), 24 h): 28%; Activity ([2]; chloroform (same volume, two-phase), 8 h): 51%; Activity ([2]; chloroform (same volume, two-phase), 24 h): 0%; Activity ([2]; cyclohexane (same volume, two-phase), 8 h): 85%; Activity ([2]; cyclohexane (same volume, two-phase), 24 h): 70%; Activity ([2]; diethyl ether (same volume, two-phase), 8 h): 100%; Activity ([2]; diethyl ether (same volume, two-phase), 24 h): 100%; Activity ([2]; diisopropyl ether (same volume, two-phase), 8 h): 100%; Activity ([2]; diisopropyl ether (same volume, two-phase), 24 h): 100%; Activity ([2]; ethyl acetate (same volume, two-phase), 8 h): 2%; Activity ([2]; ethyl acetate (same volume, two-phase), 24 h): 0%; Activity ([2]; heptane (same volume, two-phase), 8 h): 74%; Activity ([2]; heptane (same volume, two-phase), 24 h): 43%; Activity ([2]; hexane (same volume, two-phase), 8 h): 60%; Activity ([2]; hexane (same volume, two-phase), 24 h): 20%; Activity ([2]; methyl tert-butyl ether (same volume, two-phase), 8 h): 100%; Activity ([2]; methyl tert-butyl ether (same volume, two-phase), 24 h): 100%; Activity in U/ml undiluted enzyme ([3]; 15 ° C.): 73 U/ml; Activity in U/ml undiluted enzyme ([3]; 20 ° C.): 83 U/ml; Activity in U/ml undiluted enzyme ([3]; 25 ° C.): 128 U/ml; Activity in U/ml undiluted enzyme ([3]; 30 ° C.): 135 U/ml; Activity in U/ml undiluted enzyme ([3]; 35 ° C.): 163 U/ml; Activity in U/ml undiluted enzyme ([3]; 40 ° C.): 170 U/ml; Activity in U/ml undiluted enzyme ([3]; 45 ° C.): 176 U/ml; Activity in U/ml undiluted enzyme ([3]; 50 ° C.): 122 U/ml; Activity in U/ml undiluted enzyme ([3]; 55 ° C.): 45 U/ml; Activity in U/ml undiluted enzyme ([3]; 60 ° C.): 0 U/ml; Activity in U/ml undiluted enzyme ([3]; 65 ° C.): 0 U/ml; Activity in U/ml undiluted enzyme ([3]; 70 ° C.): 0 U/ml; optimum temperature (maximum activity) ([3]; standard measuring batch, 15° C. to 70° C., listed as recombinant oxidoreductase from P. capsulata): 45 °C; effect of incubation at extreme pH [4]: immediate deactivation; enzyme activity achieved ([5]; E. coli RB791, construct pQE30-PC#12, 0.1 mM IPTG): approx. 1000 U/g of wet cell mass; enzyme activity achieved ([5]; E. coli StarBL21 (De3), construct pET21-PC#10, 1 mM IPTG): approx. 6000 U/g of wet cell mass
